From publication PMC7988490, “Molecular insights into replication initiation in a multipartite genome harboring bacterium Deinococcus radiodurans” (The Journal of Biological Chemistry, 2020)

Experiments:
[1] = target: T1, drDnaB (DnaB) (Deinococcus radiodurans R1 (ATCC13939)) (UniProt Q9RWW6); assay: EMSA; conditions: nonspecific, EMSA: 50 mM Tris-HCl pH 8.0, 75 mM KCl, 5 mM MgSO4, 0.1 mM DTT, ~30 nM 32P-DNA, 37 C 15 min
T1 sequence: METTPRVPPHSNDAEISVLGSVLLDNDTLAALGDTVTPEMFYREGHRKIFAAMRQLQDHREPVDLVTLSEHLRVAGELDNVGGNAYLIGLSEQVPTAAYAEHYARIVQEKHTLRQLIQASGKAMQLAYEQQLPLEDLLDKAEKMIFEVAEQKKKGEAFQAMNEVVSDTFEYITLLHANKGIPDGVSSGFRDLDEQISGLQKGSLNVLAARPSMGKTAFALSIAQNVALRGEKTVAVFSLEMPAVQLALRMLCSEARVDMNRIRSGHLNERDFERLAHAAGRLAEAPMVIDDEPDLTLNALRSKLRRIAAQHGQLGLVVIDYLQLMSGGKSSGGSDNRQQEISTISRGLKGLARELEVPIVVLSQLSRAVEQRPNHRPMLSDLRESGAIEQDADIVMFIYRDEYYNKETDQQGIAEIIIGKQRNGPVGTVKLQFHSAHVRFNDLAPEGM

drDnaB (DnaB) [2] = target: T2, drDnaB (DnaB) (Deinococcus radiodurans R1 (ATCC13939), UniProt Q9RWW6 1-448); assay: EMSA; 1 mM ATP; EMSA: 50 mM Tris-HCl pH 8.0, 75 mM KCl, 5 mM MgSO4, 0.1 mM DTT, +/- 1 mM ATP, ~30 nM 32P-DNA, 37 C 15 min; conditions: protein: recombinant; tags: N-terminal 6xHis (pET28a); chain copies: 6; label: 32P 5' end
T2 sequence: T1 sequence

drDnaB (DnaB) [3] = target: T2, drDnaB (DnaB); assay: EMSA; no ATP; EMSA: 50 mM Tris-HCl pH 8.0, 75 mM KCl, 5 mM MgSO4, 0.1 mM DTT, +/- 1 mM ATP, ~30 nM 32P-DNA, 37 C 15 min; conditions: protein: recombinant; tags: N-terminal 6xHis (pET28a); chain copies: 6; label: 32P 5' end
drDnaB (DnaB) [4] = target: T2, drDnaB (DnaB); assay: EMSA; ATPgS; EMSA: 50 mM Tris-HCl pH 8.0, 75 mM KCl, 5 mM MgSO4, 0.1 mM DTT, +/- 1 mM ATP, ~30 nM 32P-DNA, 37 C 15 min; conditions: protein: recombinant; tags: N-terminal 6xHis (pET28a); chain copies: 6; label: 32P 5' end
[5] = target: T3, recombinant drDnaB, purified (D. radiodurans, UniProt Q9RWW6 1-448); assay: SPR; 20 μM PprA immobilised on a bare gold sensor chip by EDC-NHS at 20 °C (~200 response units); 4–20 μM drDnaA or drDnaB incubated with 1 mM ATP and 1 mM MgCl2 in the mobile phase; 20 mM Tris pH 7.6; Autolab Esprit; conditions: both partners purified
T3 construct: DnaB of Deinococcus radiodurans, DR_0549; the drdnaB gene was PCR amplified from genomic DNA of D. radiodurans R1 and cloned in pET28a(+) at BamHI and EcoRI
T3 sequence (looked up): T1 sequence

[6] = target: T4, recombinant drDnaA, purified (D. radiodurans, UniProt Q9RYE7 1-466); assay: as above; conditions: both partners purified
T4 construct: DnaA of Deinococcus radiodurans, DR_0002
T4 sequence (looked up): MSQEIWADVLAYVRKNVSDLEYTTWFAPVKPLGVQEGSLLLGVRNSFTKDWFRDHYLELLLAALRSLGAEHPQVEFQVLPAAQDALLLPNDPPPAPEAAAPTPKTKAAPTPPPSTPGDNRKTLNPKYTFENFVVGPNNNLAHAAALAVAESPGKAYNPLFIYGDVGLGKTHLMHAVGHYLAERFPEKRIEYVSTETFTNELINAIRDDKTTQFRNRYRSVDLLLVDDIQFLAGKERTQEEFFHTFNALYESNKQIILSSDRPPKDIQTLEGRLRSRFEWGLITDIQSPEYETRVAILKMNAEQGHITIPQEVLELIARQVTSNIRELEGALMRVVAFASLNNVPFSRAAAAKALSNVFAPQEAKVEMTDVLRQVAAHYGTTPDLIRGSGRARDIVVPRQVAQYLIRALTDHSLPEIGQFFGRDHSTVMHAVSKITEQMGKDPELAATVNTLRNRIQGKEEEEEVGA

oriCI 500 bp (13 DnaA boxes)
Kd ([1]; 1 mM ATP): 8230 nM
Kd ([1]; no ATP, +/- 1 mM ATP): 8890 nM

GGAATTCCAATGAACCGCAAAACCGCAAAAACCGTACCGA (ssDNA) [ssDNA oligo 99F (40 nt)]
Kd (drDnaB (DnaB) [2]): 1420 ± 50 nM
Kd (drDnaB (DnaB) [3]): 3110 ± 110 nM
Kd (drDnaB (DnaB) [4]): 1020 ± 60 nM

B1: recombinant PprA (histidine-tagged PprA, His-PprA), purified (natural protein, D. radiodurans, UniProt O32504 1-300, looked up)
chain: MLPLAFLICSGHNKGSMARAKAKDQTDGIYAAFDTLMSTAGVDSQIAALAASEADAGTLDAALTQSLQEAQGRWGLGLHHLRHEARLTDDGDIEILTDGRPSARVSEGFGALAQAYAPMQALDERGLSQWAALGEGYRAPGDLPLAQLKVLIEHARDFETDWSAGRGETFQRVWRKGDTLFVEVARPASAEAALSDAAWDVIASIKDRAFQRELMRRSEKDGMLGALLGARHAGAKANLAQLPEAHFTVQAFVQTLSGAAARNAEEYRAALKTAAAALEEYQGVTTRQLSEVLRHGLRES
Kd [5]: 971 nM
Kd [6]: 541 nM
